{
  "source": "patent US20090081229A1",
  "about": "(published 2009)",
  "binders": {"B1": {"name": "HVEM-Fc (Fc fusion)", "chain": "LPSCKEDEYPVGSECCPKCSPGYRVKEACGELTGTVCEPCPPGTYIAHLNGLSKCLQCQMCDPAMGLRASRNCSRTENAVCGCSPGHFCIVQDGDHCAACRAYATSSPGQRVQKGGTESQDTLCQNCPPGTFSPNGTLEECQHQTKCSWLVTKAGAGTSSS", "notes": "Produced in stably transfected CHO cells, Protein A purified; also called HVEM-Fc fusion protein; I-125-HVEM-Fc; not shown: Fc"}, "B2": {"name": "LIGHT-FLAG (ligand)", "chain": "GEMVTRLPDGPAGSWEQLIQERRSHEVNPAAHLTGANSSLTGSGGPLLWETQLGLAFLRGLSYHDGALVVTKAGYYYIYSKVQLGGVGCPLGLASTITHGLYKRTPRYPEELELLVSQQSPCGRATSSSRVWWDSSFLGGVVHLEAGEEVVVRVLDERLVRLRDGTRSYFGAFMV", "notes": "Radio-iodinated; also called I-125-LIGHT-FLAG; not shown: FLAG tag"}, "B3": {"name": "LIGHT (soluble, purchased from Alexis, Cat. #552-018-C010) (ligand)", "chain": "B2 chain", "notes": "Bought soluble protein; Monomer molecular weight 25 kDa used for concentrations"}},
  "key": {"hCD28-Fc": {"molecular_target": "T1, hCD28-Fc (human, UniProt P10747 19-152)", "T1 construct": "Bought; not shown: Fc; not described", "T1 sequence (P10747 19-152 limits assumed)": "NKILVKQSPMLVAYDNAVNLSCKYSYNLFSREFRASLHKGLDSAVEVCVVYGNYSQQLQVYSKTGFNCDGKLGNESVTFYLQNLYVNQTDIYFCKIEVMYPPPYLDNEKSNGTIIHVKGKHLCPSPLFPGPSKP", "test": "SPR (Biacore), hCD28-Fc amine coupled at approximately 8000 RU", "experimental": "(§1) In this experiment, PRO87299(ECD)-Fc and CD28 family members hCTLA4-Fc, hPD-1-Fc, hICOS-Fc or hCD28-Fc were amine coupled to a Biacore™ CM5 chip at approximately 8000 response units. Each was then assayed for its ability to bind HVEM. An HVEM-Fc protein was made by ligating the nucleic acids encoding amino acids 1-199 of HVEM to a Fc, resulting in a HVEM-Fc fusion protein. This HVEM-Fc was cloned into an a expression vector which would produce the fusion protein when stably transfected into CHO cells. […] The result was 2 μg/ml of HVEM-Fc injected at 5 μl/min bound selectively to PRO87299 and not to the other member of the CD28 family members tested. The activity of each CD28 family member was confirmed positive by testing the binding response to their known ligands (data not shown) (CD28 family members and ligands were purchased from R&D systems)."}, "PRO87299(ECD)-Fc [1]": {"molecular_target": "T2, PRO87299(ECD)-Fc (human, UniProt Q7Z6A9 31-155)", "T2 construct": "Reduced apparent molecular weight 55 kDa; also called PRO87299-Fc; PRO87299(ECD)-Fc chimera; not shown: human Fc domain", "T2 sequence": "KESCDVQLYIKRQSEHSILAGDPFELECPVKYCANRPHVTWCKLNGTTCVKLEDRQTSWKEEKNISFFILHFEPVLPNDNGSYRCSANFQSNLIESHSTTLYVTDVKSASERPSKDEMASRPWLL", "test": "SPR (Biacore), PRO87299(ECD)-Fc amine coupled at ~8000 RU", "experimental": "as §1"}, "[2]": {"molecular_target": "T3, LIGHT expressed on transfected cells (Homo sapiens (Human), UniProt O43557 1-240)", "T3 construct": "also called LIGHT (expressed protein)", "test": "radioligand binding to transfected cells, Scatchard analysis", "experimental": "(§2) PRO87299 binds to HVEM in a cell based assay. In this experiment human 293 cells (ATCC CCL 1573) are grown to confluence in tissue culture plates in medium such as DMEM supplemented with fetal calf serum and optionally, nutrient components and/or antibiotics. About 10 μg pRK5-HVEM DNA is mixed with about 1 μg DNA encoding the VA RNA gene [Thimmappaya et al., Cell, 31:543 (1982)] and dissolved in 500 μl of 1 mM Tris-HCl, 0.1 mM EDTA, 0.227 M CaCl₂. To this mixture is added, dropwise, 500 μl of 50 mM HEPES (pH 7.35), 280 mM NaCl, 1.5 mM NaPO₄, and a precipitate is allowed to form for 10 minutes at 25° C. The precipitate is suspended and added to the 293 cells and allowed to settle for about four hours at 37° C. The culture medium is aspirated off and 2 ml of 20% glycerol in PBS is added for 30 seconds. The 293 cells are then washed with serum free medium, fresh medium is added and the cells are incubated for about 5 days. Alternatively, about 10 μg pRK5-HVEM DNA is mixed with LipofectAMINE™ (Gibco/BRL, Gaithersburg Md.) reagent and transfection performed by following the manufacturer's instructions. After the 293 cells were transfected with HVEM, they were incubated with 1125 radiolabled PRO87299(ECD)-Fc and binding allowed to occur. The radiolabled PRO87299 was then competed off with unlabled PRO87299(ECD)-Fc and the estimated number of total binding sites and the dissociation constant (Kd) were determined by Scatchard analysis. FIG. 17(A) is a Scatchard plot and FIG. 17(B) is a displacement plot showing PRO87299(ECD)-Fc binding to HVEM transiently transfected cells. […] Using this methodology, the affinity of HVEM/LIGHT/PRO87299 interactions were determined."}, "[3]": {"molecular_target": "T4, PRO87299 expressed on cells (human, UniProt Q7Z6A9 31-289)", "T4 construct": "also called PRO87299 transfected cells; 293 cells expressing PRO87299", "test": "radioligand binding to transfected cells, Scatchard analysis", "experimental": "as §2"}, "hCTLA4-Fc": {"molecular_target": "T5, hCTLA4-Fc (human, UniProt P16410 37-162, limits assumed)", "T5 construct": "Bought; not shown: Fc; not described", "T5 sequence (looked up)": "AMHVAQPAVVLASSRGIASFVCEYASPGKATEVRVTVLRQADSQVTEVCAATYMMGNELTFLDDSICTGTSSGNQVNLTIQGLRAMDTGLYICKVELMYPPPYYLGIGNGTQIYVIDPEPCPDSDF", "test": "SPR (Biacore), hCTLA4-Fc amine coupled at approximately 8000 RU", "experimental": "as §1"}, "hICOS-Fc": {"molecular_target": "T6, hICOS-Fc (human, UniProt Q9Y6W8 21-141)", "T6 construct": "Bought; not shown: Fc; not described", "T6 sequence (looked up)": "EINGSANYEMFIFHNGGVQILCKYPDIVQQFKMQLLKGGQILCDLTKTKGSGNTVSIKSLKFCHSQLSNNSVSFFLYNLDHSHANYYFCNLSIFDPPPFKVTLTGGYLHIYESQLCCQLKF", "test": "SPR (Biacore), hICOS-Fc amine coupled at approximately 8000 RU", "experimental": "as §1"}, "hPD-1-Fc": {"molecular_target": "T7, hPD-1-Fc (human, UniProt Q15116 25-167)", "T7 construct": "Bought; not shown: Fc; not described", "T7 sequence (Q15116 25-167 limits assumed)": "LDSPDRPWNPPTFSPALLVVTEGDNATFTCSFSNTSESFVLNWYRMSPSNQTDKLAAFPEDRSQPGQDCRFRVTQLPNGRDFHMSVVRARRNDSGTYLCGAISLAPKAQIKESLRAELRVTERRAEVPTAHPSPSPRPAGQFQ", "test": "SPR (Biacore), hPD-1-Fc amine coupled at approximately 8000 RU", "experimental": "as §1"}, "[4]": {"molecular_target": "T8, PRO87299/LIGHT (both expressed on the same transfected cells) (human, UniProt Q7Z6A9 31-289; O43557 1-240)", "T8 construct": "Two proteins co-expressed on cells as the target of I-125-HVEM-Fc; not a defined complex", "test": "radioligand binding to cells expressing both PRO87299 and LIGHT, Scatchard analysis"}, "[5]": {"molecular_target": "T9, HVEM expressed on transfected 293 cells (Homo sapiens (Human), UniProt Q92956 39-283)", "T9 construct": "Transient transfection of human 293 cells with pRK5-HVEM; also called HVEM transfected cells; 293 cells expressing HVEM", "T9 sequence": "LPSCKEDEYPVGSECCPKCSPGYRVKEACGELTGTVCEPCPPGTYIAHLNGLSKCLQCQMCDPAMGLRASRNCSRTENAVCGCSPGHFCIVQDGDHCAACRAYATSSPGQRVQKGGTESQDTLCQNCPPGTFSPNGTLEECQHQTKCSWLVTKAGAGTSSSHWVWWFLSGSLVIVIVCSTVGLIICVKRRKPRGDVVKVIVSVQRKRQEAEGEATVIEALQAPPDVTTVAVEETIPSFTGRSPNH", "test": "radioligand binding to transfected cells, Scatchard analysis", "experimental": "as §2"}, "PRO87299(ECD)-Fc [6]": {"molecular_target": "T2, PRO87299(ECD)-Fc", "test": "SPR (Biacore), PRO87299-Fc amine coupled at ~9800 RU", "experimental": "PRO87299 interaction to HVEM is not blocked by LIGHT. PRO87299-Fc was amine coupled to a Biacore™ CM5 sensor chip at ˜9800 response units. LIGHT (purchased from Alexis™, Cat. #552-018-C010) was incubated at the increasing concentrations with 4 nM HVEM for 1 hr. […] LIGHT activity was confirmed by binding to immobilized HVEM-Fc on a CM5 sensor chip (data not shown). […] All binding sensograms were run in random order and in duplicate. Response units were recorded as the difference between baseline and 15 seconds before the end of a 2 min injection at 5 μl/min. Concentrations are based on molecular weights of 25 kDa for LIGHT monomer and 55 kDa for monomer HVEM."}},
  "data": [
    {"binder": "B1", "values": [
      {"measurement": "binding result", "setting": "hCD28-Fc", "result": "no binding (tested: 2 µg/ml)"},
      {"measurement": "binding result", "setting": "PRO87299(ECD)-Fc [1]", "result": "binds"},
      {"measurement": "Kd", "setting": "[2]", "result": 7, "unit": "nM"},
      {"measurement": "Kd", "setting": "[3]", "result": 5.5, "unit": "nM"},
      {"measurement": "binding result", "setting": "hCTLA4-Fc", "result": "no binding (tested: 2 µg/ml)"},
      {"measurement": "binding result", "setting": "hICOS-Fc", "result": "no binding (tested: 2 µg/ml)"},
      {"measurement": "binding result", "setting": "hPD-1-Fc", "result": "no binding (tested: 2 µg/ml)"},
      {"measurement": "Kd", "setting": "[4]", "result": 0.5, "unit": "nM"}
    ]},
    {"binder": "B2", "values": [
      {"measurement": "Kd", "setting": "[5]", "result": 2.5, "unit": "nM"}
    ]},
    {"binder": "B3", "values": [
      {"measurement": "binding result", "setting": "PRO87299(ECD)-Fc [6]", "result": "no binding"}
    ]}
  ]
}
